# Results: the supplement of paper PMC9170038
# Test system: MS2 coat protein
# Assay: apparent KD of MS2 coat protein; designed switch direction (-1 OFF switch, 1 ON switch): -1; higher = weaker reporter binding
# Outline: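 For each design, the apparent KD is the median over clusters of curves fitted to normalised cluster fluorescence. Clusters held RNA switches with common flanks, transcribed on Illumina chips by stalled E. coli RNA polymerase. These were titrated with SNAP-549-labelled MS2 coat protein, doubling from 0.7 or 1.5 nM to 3 µM, without input, with 200 uM small-molecule ligand, or with an oligonucleotide input.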
# [1] = input ligand: microRNA oligo, concentration not stated
sequence,measurement,setting,value
"ACAUGAGGAUCACCCAUGUCCGGCUGGUCUGUCUCGGCUGUCGAGGAUAUAGCACGGUAUCCGCGCUAGAAGGCGGGAGCCGGA [Aenatbe mod 86] (Eterna round: R96, puzzle: Exclusion NG 3)",apparent KD of MS2 coat protein,input ligand: FMN 200 uM,120 nM
same,apparent KD of MS2 coat protein,[1],47.1 nM
same,apparent KD of MS2 coat protein,input ligand: none,38.8 nM
"ACAUGAGGAUCACCCAUGUCCGGCUGGUCUGUUCCGGUUGUCGAGGAUAUAGUUCGGUGUUCGCGCUAGAAGGUGGGAGCUGGG [Aenatbe mod 55] (Eterna round: R96, puzzle: Exclusion NG 3)",apparent KD of MS2 coat protein,input ligand: FMN 200 uM,308 nM
same,apparent KD of MS2 coat protein,[1],163 nM
same,apparent KD of MS2 coat protein,input ligand: none,190 nM
"ACAUGAGGAUCACCCAUGUCCGUCUGGUCUGUCUCGGCUGUCGAGGAUAUAGCUCGGUAUCCGCGCUAGAAGGCGGGAGUCGGG [Aenatbe mod 95] (Eterna round: R96, puzzle: Exclusion NG 3)",apparent KD of MS2 coat protein,input ligand: FMN 200 uM,36.1 nM
same,apparent KD of MS2 coat protein,[1],60.9 nM
same,apparent KD of MS2 coat protein,input ligand: none,61.9 nM
"ACAUGAGGAUCACCCAUGUCGACGAAAAGGCUCAUGUAGAGUGAGGAUAUGUGAGACGAACGAGAACAGAAGGCACAAGACAGG [Deportation 4 - Jieux - Exclusion NG 3] (Eterna round: R96, puzzle: Exclusion NG 3)",apparent KD of MS2 coat protein,input ligand: FMN 200 uM,85.8 nM
same,apparent KD of MS2 coat protein,[1],58.9 nM
same,apparent KD of MS2 coat protein,input ligand: none,52.3 nM
"ACAUGAGGAUCACCCAUGUCGAGUACAUGAGGAUCACCCAUGUAGGAUAUGGUUCGCUUUGCGUGCUAGAAGGAUAUGUGAUGG [salish99_ExNG3_r04_513] (Eterna round: R96, puzzle: Exclusion NG 3)",apparent KD of MS2 coat protein,input ligand: FMN 200 uM,396 nM
same,apparent KD of MS2 coat protein,[1],217 nM
same,apparent KD of MS2 coat protein,input ligand: none,329 nM
"ACAUGAGGAUCACCCAUGUCUGGCGGGUCCUCUCCGGCUGUUGAGGAUAUAGUCCGGUAUCCGCGCUAGAAGGUGAGGGCCGGC [Aenatbe mod 19] (Eterna round: R96, puzzle: Exclusion NG 3)",apparent KD of MS2 coat protein,input ligand: FMN 200 uM,21.8 nM
same,apparent KD of MS2 coat protein,[1],13.8 nM
same,apparent KD of MS2 coat protein,input ligand: none,23.5 nM
"ACAUGAGGAUCACCCAUGUCUGGCUGGUCCGCUCCGGCUGUUGAGGAUAUAGUUCGGUGUCCGCGCUAGAAGGUGAGGGCUGGC [Aenatbe mod 35] (Eterna round: R96, puzzle: Exclusion NG 3)",apparent KD of MS2 coat protein,input ligand: FMN 200 uM,21.8 nM
same,apparent KD of MS2 coat protein,[1],21.2 nM
same,apparent KD of MS2 coat protein,input ligand: none,31.3 nM
"ACAUGAGGAUCACCCAUGUCUGGCUGGUCCGUCUCGGCUGUCGAGGAUAUGGCUCGGUGUCCGCGCUAGAAGGCGGGAGCUGGC [Aenatbe mod 80] (Eterna round: R96, puzzle: Exclusion NG 3)",apparent KD of MS2 coat protein,input ligand: FMN 200 uM,75.2 nM
same,apparent KD of MS2 coat protein,[1],46.2 nM
same,apparent KD of MS2 coat protein,input ligand: none,89.3 nM
"ACAUGAGGAUCACCCAUGUGAAAACAAUGGCUGACAAAGAGAUAGGAUAUAUGUGCAUAUCAAACAUAGAAGGGUCAUUACUGG [Deportation 87 - Jieux - Exclusion NG 3] (Eterna round: R96, puzzle: Exclusion NG 3)",apparent KD of MS2 coat protein,input ligand: FMN 200 uM,42.7 nM
same,apparent KD of MS2 coat protein,[1],42.5 nM
same,apparent KD of MS2 coat protein,input ligand: none,49.8 nM
"ACAUGAGGAUCACCCAUGUGAAAAGAAUGGCUGACACAGAGAUAGGAUAUAUGUGCAUAUCAAACAUAGAAGGGUCAUAACUGG [Deportation 84 - Jieux - Exclusion NG 3] (Eterna round: R96, puzzle: Exclusion NG 3)",apparent KD of MS2 coat protein,input ligand: FMN 200 uM,28.4 nM
same,apparent KD of MS2 coat protein,[1],29.4 nM
same,apparent KD of MS2 coat protein,input ligand: none,30.5 nM
"ACAUGAGGAUCACCCAUGUGACAACAAUGGCUGAUAUAGAAACAGGAUAUUCGUGAAUAUCUAACGAAGAAGGGUUAUGACUGG [Deportation 66 - Jieux - Exclusion NG 3] (Eterna round: R96, puzzle: Exclusion NG 3)",apparent KD of MS2 coat protein,input ligand: FMN 200 uM,50.4 nM
same,apparent KD of MS2 coat protein,[1],43.1 nM
same,apparent KD of MS2 coat protein,input ligand: none,54.1 nM
"ACAUGAGGAUCACCCAUGUGACAAGAAUGGCUGAUAAAGAGACAGGAUAUAGGUGCAUAUCUAACCUAGAAGGGUCAUGACUGG [Deportation 74 - Jieux - Exclusion NG 3] (Eterna round: R96, puzzle: Exclusion NG 3)",apparent KD of MS2 coat protein,input ligand: FMN 200 uM,38.5 nM
same,apparent KD of MS2 coat protein,[1],28.3 nM
same,apparent KD of MS2 coat protein,input ligand: none,38.1 nM
"ACAUGAGGAUCACCCAUGUGACAAGAAUGGCUGAUACAGAGACAGGAUAUAGGUGCAUAUCUAACCUAGAAGGGUCAUGACUGG [Deportation 73 - Jieux - Exclusion NG 3] (Eterna round: R96, puzzle: Exclusion NG 3)",apparent KD of MS2 coat protein,[1],26.6 nM
"ACAUGAGGAUCACCCAUGUGACCACAAUGGCUGAUGUAGAAACAGGAUAUUCGUGAAUAUCUAACGAAGAAGGGUUAUGACUGG [Deportation 64 - Jieux - Exclusion NG 3] (Eterna round: R96, puzzle: Exclusion NG 3)",apparent KD of MS2 coat protein,input ligand: FMN 200 uM,62.9 nM
same,apparent KD of MS2 coat protein,[1],61.7 nM
same,apparent KD of MS2 coat protein,input ligand: none,72.1 nM
"ACAUGAGGAUCACCCAUGUGCACGUAAUGGCUCAUGUAGAGAGAGGAUAUGCGUGACGAACGAGCGCAGAAGGCUCAAGACUGG [Deportation 15 - Jieux - Exclusion NG 3] (Eterna round: R96, puzzle: Exclusion NG 3)",apparent KD of MS2 coat protein,input ligand: FMN 200 uM,114 nM
same,apparent KD of MS2 coat protein,[1],66.2 nM
same,apparent KD of MS2 coat protein,input ligand: none,73.1 nM
"ACAUGAGGAUCACCCAUGUGCACGUAAUGGCUCAUGUAGAGUGAGGAUAUGUGAGACGAACGAGAACAGAAGGCACAAGACAGG [Deportation 8 - Jieux - Exclusion NG 3] (Eterna round: R96, puzzle: Exclusion NG 3)",apparent KD of MS2 coat protein,input ligand: FMN 200 uM,106 nM
same,apparent KD of MS2 coat protein,[1],92.8 nM
same,apparent KD of MS2 coat protein,input ligand: none,116 nM
"ACAUGAGGAUCACCCAUGUUUAUUGGGUACUAUACUAACAGCAAGGAUAUGCAAAUUUUUUUUACGCAGAAGGUGCAGGAACCC [JR_ExcNG3_Sub069] (Eterna round: R96, puzzle: Exclusion NG 3)",apparent KD of MS2 coat protein,input ligand: FMN 200 uM,38.3 nM
same,apparent KD of MS2 coat protein,[1],33.1 nM
same,apparent KD of MS2 coat protein,input ligand: none,52.8 nM
"ACAUGAGGAUCACCCAUGUUUGGUUGGUUUUCUCCGGCUGUUGAGGAUAUAGUCCGGUAUCCGCGCUAGAAGGUGAGGGUUGGC [Aenatbe mod 8] (Eterna round: R96, puzzle: Exclusion NG 3)",apparent KD of MS2 coat protein,input ligand: FMN 200 uM,123 nM
same,apparent KD of MS2 coat protein,[1],123 nM
same,apparent KD of MS2 coat protein,input ligand: none,131 nM
"ACAUGCUUAAUCUGUAUGAACAUGAGGAUCACCCAUGUAUAAGGGAAUUCUUUUGGGUUUUUUAUUGCUCGUCUUAU [JR_STOV1_Sub022] (Eterna round: R97, puzzle: Sensor, turn-off variant 1)",apparent KD of MS2 coat protein,input ligand: FMN 200 uM,379 nM
same,apparent KD of MS2 coat protein,input ligand: none,360 nM
ACAUGGAAGCAGGAUAUGCUUGUUUAAUUGUUUGCAGAAGGGCUAACAUGAGGAUCACCCAUGUAAGAGGUCUA [JR_E6_Sub062] (puzzle: Exclusion 6),apparent KD of MS2 coat protein,"Eterna round: R95, input ligand: microRNA oligo, concentration not stated",16.8 nM
"ACAUGUAAUGCAGGAUAUGGGACACAUGAGGAUCACCCAUGUGACCAGAUGUAAUGCUAAGAGUCUCAGAAGGGUAUGUACAUG [Ex NG2 #48] (Eterna round: R96, puzzle: Exclusion NG 2)",apparent KD of MS2 coat protein,input ligand: FMN 200 uM,17.8 nM
same,apparent KD of MS2 coat protein,[1],13.2 nM
same,apparent KD of MS2 coat protein,input ligand: none,17.8 nM
"ACAUGUCAUCGAGGAUAUUGCACACAUGAGGAUCACCCAUGUAUUCGGUUGCUCUUGCGUGAGUUCGAGAAGGCGAUGUACAUU [Ex NG2 #85] (Eterna round: R96, puzzle: Exclusion NG 2)",apparent KD of MS2 coat protein,input ligand: FMN 200 uM,134 nM
same,apparent KD of MS2 coat protein,[1],215 nM
same,apparent KD of MS2 coat protein,input ligand: none,262 nM
"ACAUGUCAUCGAGGAUAUUGGACACAUGAGGAUCACCCAUGUACUCGGAUGCUCUACCAUGAGUUCGAGAAGGCGAUGUACAUU [Ex NG2 #78] (Eterna round: R96, puzzle: Exclusion NG 2)",apparent KD of MS2 coat protein,input ligand: FMN 200 uM,31.9 nM
same,apparent KD of MS2 coat protein,[1],94.3 nM
same,apparent KD of MS2 coat protein,input ligand: none,181 nM
"ACAUGUCAUUGAGGAUAUUGCACACAUGAGGAUCACCCAUGUAUACGGUUGCUCUUGCGUGAGUUCGAGAAGGCGAUGUACAUU [Ex NG2 #87] (Eterna round: R96, puzzle: Exclusion NG 2)",apparent KD of MS2 coat protein,input ligand: FMN 200 uM,356 nM
same,apparent KD of MS2 coat protein,[1],168 nM
same,apparent KD of MS2 coat protein,input ligand: none,159 nM
"ACAUGUGUUGUAGGAUAUAGGAUACAUGAGGAUCACCCAUGUGGAUUCAUGUCUAUGGAAACGUCCUAGAAGGACGACAACAUG [Ex NG2 #21] (Eterna round: R96, puzzle: Exclusion NG 2)",apparent KD of MS2 coat protein,input ligand: FMN 200 uM,120 nM
same,apparent KD of MS2 coat protein,[1],56 nM
same,apparent KD of MS2 coat protein,input ligand: none,90.5 nM
"ACAUGUUAUGUAGGAUAUUUUACACAUGAGGAUCACCCAUGUAACCGGAGGCUUUACUAUGAGUAAGAGAAGGGUAUGAACAUG [Ex NG2 #64] (Eterna round: R96, puzzle: Exclusion NG 2)",apparent KD of MS2 coat protein,input ligand: FMN 200 uM,92.5 nM
same,apparent KD of MS2 coat protein,[1],42.2 nM
same,apparent KD of MS2 coat protein,input ligand: none,83.7 nM
"ACAUGUUGCGCAGGAUAUGAGACACAUGAGGAUCACCCAUGUGGCUACAUGUCAUACCAAGCGUCUCAGAAGGGUGUUAACAUG [Ex NG2 #35] (Eterna round: R96, puzzle: Exclusion NG 2)",apparent KD of MS2 coat protein,input ligand: FMN 200 uM,23.5 nM
same,apparent KD of MS2 coat protein,[1],20.5 nM
same,apparent KD of MS2 coat protein,input ligand: none,28.4 nM
"ACAUUCAGAGGAUAUGCGCAUAGAUAAGACUUUUUUUUUUAACAUGAGGAUCACCCAUGUAGAAGGCUGUAACA [Ex2 #49] (Eterna round: R97, puzzle: Exclusion 2)",apparent KD of MS2 coat protein,input ligand: FMN 200 uM,21.4 nM
same,apparent KD of MS2 coat protein,input ligand: none,21.7 nM
"ACCAGAAUAGGAUAUAACGAAAAGGACAUGAGGAUCACCCAUGUGACUACUAUUCCCUUGUUAGAAGGAUUGCGGG [Eternabot (L2) Solution 48] (Eterna round: R97, puzzle: Exclusion 5)",apparent KD of MS2 coat protein,input ligand: FMN 200 uM,32 nM
same,apparent KD of MS2 coat protein,input ligand: none,24.9 nM
"ACCAUUUCGGUGGUCUAAGAACAUGAGGAUCACCCAUGUAUCGAGGAUAUCCCAAGCAGACUAUGGGAGAAGGUGAACAGAAGG [Eternabot solution 24] (Eterna round: R96, puzzle: Exclusion NG 3)",apparent KD of MS2 coat protein,input ligand: FMN 200 uM,40.1 nM
same,apparent KD of MS2 coat protein,[1],25.6 nM
same,apparent KD of MS2 coat protein,input ligand: none,41.7 nM
